Molecular target: T1, SARS-CoV-2 Nucleocapsid Protein with GST-tag, biotinylated (Severe acute respiratory syndrome …, UniProt P0DTC9)
T1 construct: also called NP; N-GST
Assay: ELISA; […], room temperature; […]
Conditions: one partner purified

B1: Fab N1G1 (Fab, V domains shown)
VH: EVQLLESGGGLVQPGGSLRLSCAASGFTFSDYYMHVRQAPGKGLEWVSEINPSSGNTDYADSVKGRFTISRDNSKNTLYLQMNSLRAEDTAVYYCAREYEEHGYYLTDYYFDYWGQGTLVTVSS
VL: EIVLTQSPGTLSLSPGERATLSCRASQSVSSSALAWYQQKPGQAPRLLIYGASSRATGVPDRFSGSGSGTDFTLTISRLEPEDFAVYYCQQMHSTPWTFGQGTKVEIK
notes: also called positive control for anti-NP1 & 2 screening
B1: binds.

Reference: paper PMC10421887 (Scientific Reports, 2023)
